Target: T1, fusion protein consisting of soluble CD64 linked to the Fc portion of human IgM (human, UniProt P12314 16-292; P01871 106-453, limits assumed)
T1 construct: domain: soluble CD64;domain: Fc portion; Used as a supernatant and detected with alkaline phosphatase labelled goat anti-human IgM; also called soluble CD64-IgM fusion protein
Assay: bispecific ELISA: PsaA coated, detection with soluble CD64-IgM fusion and anti-human IgM

T1 sequence (P12314 other isoform, or with tags, fused parts or gaps limits assumed): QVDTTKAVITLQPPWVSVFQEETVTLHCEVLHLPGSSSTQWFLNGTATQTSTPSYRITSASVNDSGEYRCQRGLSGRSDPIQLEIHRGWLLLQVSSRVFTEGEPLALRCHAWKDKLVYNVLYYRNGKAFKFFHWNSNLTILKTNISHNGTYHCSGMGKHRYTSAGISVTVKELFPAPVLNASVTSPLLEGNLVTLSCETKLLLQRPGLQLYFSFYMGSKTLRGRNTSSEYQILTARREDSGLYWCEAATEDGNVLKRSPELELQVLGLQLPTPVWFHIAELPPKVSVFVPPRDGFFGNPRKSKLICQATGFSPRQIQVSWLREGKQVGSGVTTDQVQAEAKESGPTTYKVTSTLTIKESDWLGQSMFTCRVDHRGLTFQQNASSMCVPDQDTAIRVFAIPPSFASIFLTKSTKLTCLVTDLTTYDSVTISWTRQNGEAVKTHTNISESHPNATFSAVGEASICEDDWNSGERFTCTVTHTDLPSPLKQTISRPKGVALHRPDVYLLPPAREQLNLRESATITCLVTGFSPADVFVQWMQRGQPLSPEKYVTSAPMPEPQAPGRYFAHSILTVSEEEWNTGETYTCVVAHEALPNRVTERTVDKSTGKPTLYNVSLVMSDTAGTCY

B1: F(ab')2 fragment of the anti-PsaA Ab 5-9A7 (antibody, V domains shown)
VH: EVQLVESGGGLVQPGGSLRLSCAASGFTFSSFWMSWVRQAPGKGLEWVANIKQDGSEKFYVDSVKGRFTISRDNAKNSLYLQMNSLRAEDTAVYYCARDRITMVRPYYYFYNGLDVWGQGTTVTVSS
VL: EIVLTQSPATLSLSPGERATLSCRASQSVSSYLAWYQQKPGQAPRLLIYDASNRATGIPARFSGSGSGTDFTLTISSLEPEDFAVYYCQQRSNWPPFTFGPGTKVDIK
notes: F(ab')2 fragment made by pepsin digestion of the human antibody 5-9A7; also called anti-PsaA F(ab')2
B1: no binding.

— patent WO2005003174A1 (dated 2005)
